Test system: peptide library, one residue held at a place counted from the Y acceptor
Assay: relative phosphorylation of the sub-library (ratio to the mean residue at this position); higher = residue favoured
Method in brief: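 Biotinylated Tyr-centred peptide library mixtures, each fixing one residue at one position from −5 to +5, were incubated with purified recombinant kinases in 384-well plates for 90 min with 50 μM ATP plus γ-32P-ATP. Streptavidin membranes captured the peptides, which were rinsed and quantified by phosphorimaging and ImageQuant. At each position, intensities were divided by the sum of the 18 randomized residues (16 for the Ser/Thr-free library) and multiplied by that number. Each value is phosphorylation relative to the mean randomized residue.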

Chain of LCK, construct: Full length, human (P06239 whole entry, looked up): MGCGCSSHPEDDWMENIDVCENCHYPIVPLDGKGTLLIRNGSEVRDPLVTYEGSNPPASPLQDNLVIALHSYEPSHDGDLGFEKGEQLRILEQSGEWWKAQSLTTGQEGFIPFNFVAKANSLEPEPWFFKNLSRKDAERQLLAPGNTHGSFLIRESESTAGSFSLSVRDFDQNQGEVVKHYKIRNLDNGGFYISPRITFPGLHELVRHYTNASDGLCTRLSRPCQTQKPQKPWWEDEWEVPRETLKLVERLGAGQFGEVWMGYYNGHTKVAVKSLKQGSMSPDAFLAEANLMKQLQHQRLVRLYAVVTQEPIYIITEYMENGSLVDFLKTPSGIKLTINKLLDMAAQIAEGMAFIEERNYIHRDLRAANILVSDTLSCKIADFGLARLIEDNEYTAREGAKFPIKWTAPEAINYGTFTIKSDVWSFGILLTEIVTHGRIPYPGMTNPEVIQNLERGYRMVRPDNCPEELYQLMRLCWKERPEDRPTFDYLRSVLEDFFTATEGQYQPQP
Chain of KIT, construct: aa544-end, human (P10721 544-976, looked up): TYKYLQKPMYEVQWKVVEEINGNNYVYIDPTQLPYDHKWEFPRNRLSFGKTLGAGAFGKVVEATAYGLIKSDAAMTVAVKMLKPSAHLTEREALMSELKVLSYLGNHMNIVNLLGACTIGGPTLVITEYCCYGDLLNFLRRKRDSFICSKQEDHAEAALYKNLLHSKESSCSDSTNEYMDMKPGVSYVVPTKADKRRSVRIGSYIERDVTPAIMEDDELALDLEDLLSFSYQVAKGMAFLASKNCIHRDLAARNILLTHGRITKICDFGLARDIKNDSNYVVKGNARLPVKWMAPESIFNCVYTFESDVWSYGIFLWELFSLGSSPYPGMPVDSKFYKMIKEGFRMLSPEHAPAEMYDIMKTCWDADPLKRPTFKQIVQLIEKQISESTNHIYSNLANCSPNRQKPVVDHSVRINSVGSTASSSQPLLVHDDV
Chain of LIMK1, construct: aa285-end, human (P53667 285-647, looked up): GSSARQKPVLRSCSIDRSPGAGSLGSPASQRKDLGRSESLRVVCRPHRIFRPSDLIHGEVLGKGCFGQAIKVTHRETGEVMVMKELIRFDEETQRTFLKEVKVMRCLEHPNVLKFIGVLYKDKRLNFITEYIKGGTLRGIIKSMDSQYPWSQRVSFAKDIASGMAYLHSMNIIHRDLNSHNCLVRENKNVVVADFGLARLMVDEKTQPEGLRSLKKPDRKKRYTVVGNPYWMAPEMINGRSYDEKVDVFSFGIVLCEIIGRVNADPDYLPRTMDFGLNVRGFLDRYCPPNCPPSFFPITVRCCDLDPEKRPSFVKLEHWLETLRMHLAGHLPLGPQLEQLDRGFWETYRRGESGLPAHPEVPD

KIT, construct: aa544-end, human (from UniProt P10721)
relative phosphorylation
Conditions | at +1 | at +2 | at +3 | at +4 | at +5 | at -1 | at -2 | at -3 | at -4 | at -5
A fixed | 0.767 | 0.817 | 0.577 | 0.912 | 1.01 | 0.799 | 1.12 | 1.03 | 1.1 | 1.01
D fixed | 0.38 | 0.893 | 0.392 | 0.969 | 0.604 | 1.62 | 1.26 | 1.51 | 1.33 | 1.22
E fixed | 0.666 | 1.19 | 0.276 | 0.92 | 0.618 | 1.36 | 1.45 | 1.76 | 1.51 | 1.04
F fixed | 1.99 | 1.1 | 2.08 | 1.13 | 1.9 | 1.06 | 0.614 | 0.837 | 0.973 | 0.976
G fixed | 0.387 | 0.485 | 0.529 | 1.03 | 1.16 | 0.521 | 1.19 | 1.1 | 1.17 | 1.22
H fixed | 1.82 | 0.971 | 0.859 | 1.14 | 0.933 | 1.39 | 0.967 | 0.973 | 0.913 | 1.04
I fixed | 1.78 | 0.95 | 2.43 | 0.817 | 0.793 | 1.86 | 0.881 | 0.703 | 0.892 | 0.869
K fixed | 0.694 | 0.803 | 0.588 | 1.05 | 0.596 | 0.494 | 0.669 | 0.754 | 0.806 | 1.03
L fixed | 1.18 | 1.15 | 1.76 | 0.826 | 0.911 | 1.06 | 0.867 | 0.707 | 0.801 | 0.849
M fixed | 1.17 | 1.02 | 1.42 | 0.903 | 0.949 | 0.834 | 0.763 | 0.764 | 0.865 | 0.848
N fixed | 0.554 | 1.05 | 0.581 | 0.952 | 0.811 | 1.13 | 1.15 | 1.18 | 0.92 | 1.07
P fixed | 0.495 | 0.925 | 1.1 | 0.96 | 1.48 | 0.883 | 1.26 | 1.07 | 1.12 | 1.13
Q fixed | 1.12 | 1.05 | 0.591 | 1.09 | 0.773 | 0.87 | 1.15 | 1.01 | 1.05 | 0.891
R fixed | 0.761 | 1.04 | 0.871 | 1.26 | 0.822 | 0.487 | 0.857 | 0.774 | 0.929 | 0.958
S fixed | 0.649 | 0.88 | 0.53 | 0.99 | 0.904 | 0.644 | 1.14 | 1.09 | 0.934 | 0.983
T fixed | 0.834 | 0.943 | 0.706 | 0.87 | 0.953 | 0.952 | 1.08 | 1.03 | 0.834 | 0.985
V fixed | 1.65 | 1.02 | 1.65 | 0.868 | 0.776 | 1.37 | 0.909 | 0.756 | 0.775 | 0.797
W fixed | 1.11 | 1.71 | 1.07 | 1.32 | 2.01 | 0.667 | 0.676 | 0.95 | 1.09 | 1.1
pThr fixed | 0.919 | 1.81 | 0.344 | 0.573 | 0.504 | 1.43 | 1.17 | 1.69 | 1.35 | 1.26
pTyr fixed | 2.18 | 2 | 0.413 | 1.16 | 0.73 | 4.18 | 1.59 | 1.89 | 1.48 | 1.4

LCK, construct: Full length, human (from UniProt P06239)
relative phosphorylation
Conditions | at +1 | at +2 | at +3 | at +4 | at +5 | at -1 | at -2 | at -3 | at -4 | at -5
A fixed | 1.69 | 1.08 | 0.69 | 0.928 | 1.14 | 0.73 | 1.02 | 0.875 | 1.08 | 1.06
D fixed | 1.03 | 0.616 | 0.245 | 0.484 | 0.691 | 0.877 | 1.4 | 1.77 | 1.4 | 1.28
E fixed | 1.58 | 1.07 | 0.211 | 0.557 | 0.532 | 1.22 | 1.68 | 2.02 | 1.63 | 1.13
F fixed | 0.615 | 0.776 | 1.65 | 0.931 | 1.28 | 1.06 | 0.572 | 0.895 | 0.822 | 0.96
G fixed | 2.95 | 0.934 | 0.904 | 1.18 | 1.14 | 0.416 | 1.35 | 1.1 | 1.25 | 1.17
H fixed | 0.786 | 0.711 | 1.06 | 1.02 | 0.844 | 0.757 | 0.99 | 1.01 | 0.975 | 0.962
I fixed | 0.738 | 0.932 | 1.92 | 0.85 | 0.639 | 2.81 | 0.663 | 0.549 | 0.792 | 0.836
K fixed | 0.271 | 0.936 | 0.752 | 1.66 | 1.07 | 0.308 | 0.641 | 0.562 | 0.665 | 0.852
L fixed | 0.686 | 0.754 | 1.67 | 0.887 | 0.942 | 1.93 | 0.796 | 0.731 | 0.921 | 0.866
M fixed | 1.37 | 0.795 | 0.932 | 1.03 | 0.91 | 0.894 | 0.726 | 0.73 | 0.792 | 0.878
N fixed | 0.54 | 0.934 | 0.429 | 0.801 | 0.92 | 0.431 | 1.25 | 1.42 | 1.11 | 1.24
P fixed | 0.225 | 1.33 | 0.84 | 1.07 | 1.31 | 0.833 | 1.32 | 1.01 | 1.2 | 1.23
Q fixed | 0.979 | 0.954 | 0.45 | 1 | 0.937 | 0.538 | 1.2 | 1.01 | 1.19 | 1.15
R fixed | 0.438 | 1.2 | 1.55 | 1.69 | 1.34 | 0.238 | 0.696 | 0.637 | 0.82 | 0.98
S fixed | 1.11 | 1.31 | 0.651 | 0.911 | 1.28 | 0.405 | 1.22 | 0.982 | 0.885 | 0.897
T fixed | 0.821 | 1.36 | 0.697 | 0.849 | 0.968 | 1.32 | 0.982 | 0.892 | 0.735 | 0.841
V fixed | 0.868 | 1.2 | 1.33 | 0.846 | 0.89 | 2.65 | 0.749 | 0.693 | 0.749 | 0.703
W fixed | 1.3 | 1.11 | 2.02 | 1.3 | 1.16 | 0.584 | 0.748 | 1.11 | 0.989 | 0.971
pThr fixed | 0.786 | 1.27 | 0.195 | 0.27 | 0.448 | 3.03 | 1.47 | 1.18 | 1.13 | 1.17
pTyr fixed | 1.22 | 1.24 | 0.303 | 0.289 | 0.434 | 1.21 | 1.16 | 1.59 | 1.64 | 0.861

LIMK1, construct: aa285-end, human (from UniProt P53667)
relative phosphorylation
Conditions | at +1 | at +2 | at +3 | at +4 | at +5 | at -1 | at -2 | at -3 | at -4 | at -5
A fixed | 0.862 | 0.869 | 0.944 | 1.08 | 0.821 | 0.957 | 0.937 | 0.905 | 1.05 | 0.934
D fixed | 0.776 | 0.662 | 0.6 | 0.613 | 0.56 | 0.811 | 0.735 | 0.778 | 0.812 | 0.737
E fixed | 0.728 | 0.669 | 0.66 | 0.544 | 0.532 | 0.672 | 0.689 | 0.68 | 0.763 | 0.813
F fixed | 0.879 | 1.2 | 1.21 | 1.23 | 1.18 | 0.849 | 1.08 | 1.21 | 1.02 | 1.1
G fixed | 1.22 | 0.739 | 0.954 | 0.989 | 0.991 | 1.31 | 1.02 | 1.04 | 1.08 | 1.02
H fixed | 1.06 | 1.07 | 1.11 | 1.1 | 1.06 | 1.06 | 1.02 | 0.955 | 0.953 | 1.09
I fixed | 0.769 | 0.852 | 0.813 | 0.902 | 0.748 | 0.753 | 0.853 | 0.667 | 0.769 | 0.946
K fixed | 1.35 | 1.49 | 1.4 | 1.37 | 1.46 | 1.28 | 1.33 | 1.16 | 1.3 | 1.14
L fixed | 0.738 | 0.856 | 0.829 | 1 | 0.825 | 0.782 | 0.822 | 0.865 | 0.833 | 0.876
M fixed | 0.802 | 0.926 | 0.996 | 0.973 | 0.836 | 0.793 | 0.833 | 0.801 | 0.837 | 0.843
N fixed | 1.09 | 0.92 | 0.945 | 0.797 | 0.838 | 1.01 | 1.26 | 1.29 | 0.885 | 0.902
P fixed | 1.11 | 0.849 | 0.97 | 0.87 | 0.89 | 1.12 | 1.09 | 1.02 | 1.06 | 0.935
Q fixed | 0.961 | 0.921 | 0.865 | 0.74 | 0.849 | 0.888 | 0.846 | 1.13 | 1 | 0.858
R fixed | 1.6 | 1.63 | 1.39 | 1.24 | 1.43 | 1.53 | 1.31 | 1.42 | 1.41 | 1.34
V fixed | 0.713 | 0.979 | 0.782 | 0.907 | 0.754 | 0.81 | 0.86 | 0.819 | 0.807 | 0.837
W fixed | 1.34 | 1.37 | 1.54 | 1.64 | 2.22 | 1.38 | 1.31 | 1.26 | 1.42 | 1.62
pThr fixed | 0.753 | 0.513 | 0.519 | 0.596 | 0.409 | 0.704 | 0.664 | 0.635 | 0.96 | 0.703
pTyr fixed | 0.761 | 0.655 | 0.689 | 0.61 | 0.518 | 1.61 | 0.887 | 1.34 | 0.667 | 0.744
